Measured values from US20240390468A1, “SURVIVIN AND MAGE-A9 DUAL-TARGETED IMMUNOTHERAPY” (IMMUNOVACCINE TECHNOLOGIES INC., priority 2022, published 2024).

System: splenocytes of A2/DR1 mice
Experiment: IFN-γ ELISA after stimulation of spleen cells with peptides
Format: cell-based
Description: FIG. 25 depicts cytokine response upon stimulation with reactive HLA-A2 MAGE-A9 peptides. Groups of three A2/DR1 mice were either not immunized (naive mice) or immunized twice with a pool of four reactive peptides in CTL assays (M9-A2-24; M9-A2-111; M9-A2-223; M9-A2-270) or with adjuvants only, as control. Mice were sacrificed after 28 days and spleens were collected for isolation of splenocytes. Splenocytes were restimulated for 72 h with either individual peptides or the peptide pool. Supernatant was collected and assayed by ELISA for secretion of murine INF-7. Bars represent mean of triplicate plus or minus standard deviation (SD). Tukey's multiple comparisons test was used to determine adjusted p values. *=p<0.05, **=p<0.01, ***=p<0.001, ****=p<0.0001.
INF-γ secreted after stimulation of spleen cells with the four peptides were tested by ELISA.
Supernatants from cultures of whole splenocytes stimulated with the irradiated splenocytes loaded with the peptides were collected after 72 hours of stimulation and the amounts of IFN-γ were estimated by sandwich ELISA using the mouse IFN-γ ELISA Max set Deluxe kit (BioLegend, San Diego, CA).

B1: recombinant MAGE-A9: his-tag MAGE-A9 full-length recombinant protein used as immunogen admixed with poly(I:C) (protein, UniProt P43362 1-315, looked up)
chain: MSLEQRSPHCKPDEDLEAQGEDLGLMGAQEPTGEEEETTSSSDSKEEEVSAAGSSSPPQSPQGGASSSISVYYTLWSQFDEGSSSQEEEEPSSSVDPAQLEFMFQEALKLKVAELVHFLLHKYRVKEPVTKAEMLESVIKNYKRYFPVIFGKASEFMQVIFGTDVKEVDPAGHSYILVTALGLSCDSMLGDGHSMPKAALLIIVLGVILTKDNCAPEEVIWEALSVMGVYVGKEHMFYGEPRKLLTQDWVQENYLEYRQVPGSDPAHYEFLWGSKAHAETSYEKVINYLVMLNAREPICYPSLYEEVLGEEQEGV
modifications: full-length His tag
  subtype of T cells induced after immunization: Th1 subtype
